Paper PMC8558838 (The Journal of Experimental Medicine, 2021)
Where a chain is given by its changes, count along the chain named. One block for each molecule: values may come before it.

T1: mHVEM (Q39-Q206)-human IgG1-hexa-His, WT (mouse, UniProt Q80WM9 39-206)
T1 chain: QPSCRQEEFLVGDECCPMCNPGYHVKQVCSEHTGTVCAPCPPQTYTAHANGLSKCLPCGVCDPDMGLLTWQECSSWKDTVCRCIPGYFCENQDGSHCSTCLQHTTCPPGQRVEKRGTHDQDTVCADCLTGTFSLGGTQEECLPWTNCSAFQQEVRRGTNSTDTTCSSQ

T2: mHVEM (Q39-Q206)-human IgG1-hexa-His, WT (mouse, UniProt Q80WM9 39-206)
T2 construct: mouse HVEM (TNFRSF14) residues Q39-Q206; pcDNA 3.3; also called mHVEM-hIgG1; mHVEM^WT; source: Expi293, transfected, purified (Ni resin); not shown: Fc (human IgG1), C-terminal, kept
T2 sequence (looked up): T1 chain

T3: mHVEM^−LIGHT (H86D-L90A) soluble protein, mHVEM-hIgG1 format (mouse, UniProt Q80WM9 39-206, H86D | L90A)
T3 construct: mouse HVEM (TNFRSF14) residues Q39-Q206 with H86D and L90A; also called mHVEM H86D-L90A double mutein; source: expressed in soluble form (Expi293, purified on Ni resin, as told for mHVEM-hIgG1); not shown: Fc (human IgG1), C-terminal, kept
T3 sequence (looked up): T1 chain with H48D, L52A

T4: mHVEM^−BT/160 (G72R-V74A) soluble protein, mHVEM-hIgG1 format (mouse, UniProt Q80WM9 39-206, G72R | V74A)
T4 construct: mouse HVEM (TNFRSF14) residues Q39-Q206 with G72R and V74A; also called mHVEM G72R-V74A double mutein; source: expressed in soluble form (Expi293, purified on Ni resin, as told for mHVEM-hIgG1); not shown: Fc (human IgG1), C-terminal, kept
T4 sequence (looked up): T1 chain with G34R, V36A

B1: human LIGHT extracellular domain (L83-V240) (ligand, UniProt O43557 83-240, looked up)
chain: LIQERRSHEVNPAAHLTGANSSLTGSGGPLLWETQLGLAFLRGLSYHDGALVVTKAGYYYIYSKVQLGGVGCPLGLASTITHGLYKRTPRYPEELELLVSQQSPCGRATSSSRVWWDSSFLGGVVHLEAGEKVVVRVLDERLVRLRDGTRSYFGAFMV
notes: human LIGHT (TNFSF14), extracellular domain, residues L83-V240; Homotrimer; The His tag is used for detection in the flow cytometry staining; also called hLIGHT; TNFSF14; not shown: His6 (HHHHHHG), N-terminal, kept
B2: mouse CD160 (30I-154H) with C-terminal …, biotinylated (ligand)
chain: IHVTSSASQKGGRLDLTCTLWHKKDEAEGLILFWCKDNPWNCSPETNLEQLRVKRDPETDGITEKSSQLVFTIEQATPSDSGTYQCCARSQKPEIYIHGHFLSVLVTGNHTEIRQRQRSHPDFSH
modifications: biotin
B3: mouse CD160 (30I-154H) with C-terminal [residues removed], biotinylated (ligand, UniProt O88875 30-154, looked up)
chain: B2 chain
modifications: biotin
notes: mouse CD160 residues 30I-154H; also called mCD160; mCD160-biotin
B4: human HVEM extracellular domain (L39-C162) (domain or fragment, UniProt Q92956 39-162, looked up)
chain: LPSCKEDEYPVGSECCPKCSPGYRVKEACGELTGTVCEPCPPGTYIAHLNGLSKCLQCQMCDPAMGLRASRNCSRTENAVCGCSPGHFCIVQDGDHCAACRAYATSSPGQRVQKGGTESQDTLC
notes: human HVEM (TNFRSF14), extracellular domain, residues L39-C162; positions numbered with initiation codon = 1; Cloned into pMT/BiP/V5-His for His-tag fusion protein production; also called hHVEM; TNFRSF14
B5: single chain homotrimeric mLIGHT extracellular domain (G73-V239) connected by two (GGGGS)4 linkers (ligand, mouse)
chain: GGKGSWEKLIQDQRSHQANPAAHLTGANASLIGIGGPLLWETRLGLAFLRGLTYHDGALVTMEPGYYYVYSKVQLSGVGCPQGLANGLPITHGLYKRTSRYPKELELLVSRRSPCGRANSSRVWWDSSFLGGVVHLEAGEEVVVRVPGNRLVRPRDGTRSYFGAFMVGGGGSGGGGSGGGGSGGGGSGGKGSWEKLIQDQRSHQANPAAHLTGANASLIGIGGPLLWETRLGLAFLRGLTYHDGALVTMEPGYYYVYSKVQLSGVGCPQGLANGLPITHGLYKRTSRYPKELELLVSRRSPCGRANSSRVWWDSSFLGGVVHLEAGEEVVVRVPGNRLVRPRDGTRSYFGAFMVGGGGSGGGGSGGGGSGGGGSGGKGSWEKLIQDQRSHQANPAAHLTGANASLIGIGGPLLWETRLGLAFLRGLTYHDGALVTMEPGYYYVYSKVQLSGVGCPQGLANGLPITHGLYKRTSRYPKELELLVSRRSPCGRANSSRVWWDSSFLGGVVHLEAGEEVVVRVPGNRLVRPRDGTRSYFGAFMV
notes: mouse LIGHT (TNFSF14) extracellular domain G73-V239, first copy; linker, printed as (GGGGS)4; mouse LIGHT (TNFSF14) extracellular domain G73-V239, second copy; mouse LIGHT (TNFSF14) extracellular domain G73-V239, third copy; Three copies of the extracellular domain on one chain; source: Expi293, transfected, purified (Ni resin, SEC)
B6: mouse BTLA, soluble protein used as analyte in the Octet experiment (ligand, UniProt Q7TSA3 30-183, looked up)
chain: EKATKRNDEECPVQLTITRNSKQSARTGELFKIQCPVKYCVHRPNVTWCKHNGTICVPLEVSPQLYTSWEENQSVPVFVLHFKPIHLSDNGSYSCSTNFNSQVINSHSVTIHVRERTQNSSEHPLITVSDIPDATNASGPSTMEERPGRTWLLY
notes: mouse BTLA (CD272), soluble form; also called mBTLA

Tests used:
mBTLA protein = test: flow cytometry, cell–protein method; conditions: parent: est. 1.0; read off a plot
[1] = biological target: full-length mouse BTLA-EGFP, on cells (UniProt Q7TSA3); test: flow cytometry, cell–cell method
[2] = biological target: full-length mouse LIGHT, on cells (mLIGHT-IRES-EGFP) (UniProt Q9QYH9); test: flow cytometry, cell–cell method
[3] = biological target: mouse CD160 (30I-154H) with C-terminal …, biotinylated (UniProt O88875); test: flow cytometry, cell–protein method
[4] = biological target: human LIGHT extracellular domain (L83-V240) (human) (UniProt O43557); test: crystal structure; single-chain hCD160–hHVEM and hLIGHT mixed in a 1:1 molar ratio, 5 mg/ml in 10 mM Hepes pH 7.0, 150 mM NaCl; crystallised in 12% PEG3350, 4% tacsimate; 3.5 Å
[5] = biological target: the molecule itself; test: crystal structure; hHVEM and hLIGHT mixed in a 1:1 molar ratio, 3 mg/ml in 10 mM Hepes pH 7.0, 150 mM NaCl; crystallised in 0.1 M Bis-Tris pH 5.5, 0.2 M MgCl2, 9% PEG3350; 2.30 Å
[6] = biological target: mHVEM^−LIGHT (H86D-L90A) soluble protein, mHVEM-hIgG1 format (mouse, UniProt Q80WM9 39-206, H86D | L90A); test: BLI
[7] = biological target: T1, mHVEM (Q39-Q206)-human IgG1-hexa-His, WT; test: BLI
[8] = biological target: T2, mHVEM (Q39-Q206)-human IgG1-hexa-His, WT; test: BLI; Octet; mHVEM-hIgG1 immobilised on the sensors, challenged with different concentrations of mLIGHT, mBTLA or mCD160; steady-state fit for mLIGHT, 1:1 Langmuir model for mBTLA and mCD160; conditions: both partners purified
[9] = biological target: T3, mHVEM^−LIGHT (H86D-L90A) soluble …; test: as above; conditions: both partners purified
[10] = biological target: B1; test: SEC; analytical SEC; equal molar equivalents of hLIGHT and hHVEM monomers mixed; conditions: both partners purified
[11] = biological target: mHVEM^−BT/160 (G72R-V74A) soluble protein, mHVEM-hIgG1 format (mouse, UniProt Q80WM9 39-206, G72R | V74A); test: BLI
[12] = biological target: T4, mHVEM^−BT/160 (G72R-V74A) soluble …; test: BLI; Octet; mHVEM-hIgG1 immobilised on the sensors, challenged with different concentrations of mLIGHT, mBTLA or mCD160; steady-state fit for mLIGHT, 1:1 Langmuir model for mBTLA and mCD160; conditions: both partners purified

ratio to parent (mBTLA protein): 0.82
Molecule: full-length WT mouse HVEM-mCherry, on cells (from UniProt Q80WM9) H86D; L90D

ratio to parent (mBTLA protein): 0.01
Molecule: full-length WT mouse HVEM-mCherry, on cells (from UniProt Q80WM9) G72D; V74R

ratio to parent (mBTLA protein): 0.01
Molecule: full-length WT mouse HVEM-mCherry, on cells (from UniProt Q80WM9) G72D; V74D

ratio to parent (mBTLA protein): 0.02
Molecule: full-length WT mouse HVEM-mCherry, on cells (from UniProt Q80WM9) G72D; V74A

ratio to parent (mBTLA protein): 0.01
Molecule: full-length WT mouse HVEM-mCherry, on cells (from UniProt Q80WM9) G72R; V74A

ratio to parent (mBTLA protein): 0.78
Molecule: full-length WT mouse HVEM-mCherry, on cells (from UniProt Q80WM9) H86A; L90A

ratio to parent (mBTLA protein): 0.66
Molecule: full-length WT mouse HVEM-mCherry, on cells (from UniProt Q80WM9) H86R; L90A

ratio to parent [1]: 1.1
ratio to parent [2]: 1.2
ratio to parent [3]: 1
Molecule: full-length WT mouse HVEM-mCherry, on cells (from UniProt Q80WM9) A76A

ratio to parent (mBTLA protein): 0.01
Molecule: full-length WT mouse HVEM-mCherry, on cells (from UniProt Q80WM9) G72A; V74D

ratio to parent (mBTLA protein): 0.63
Molecule: full-length WT mouse HVEM-mCherry, on cells (from UniProt Q80WM9) H86D; L90R

stoichiometry N (hCD160–hHVEM per hLIGHT homotrimer) [4]: 3
Molecule: single-chain hCD160–hHVEM fusion protein

Molecule: B1
stoichiometry N [5]: 3

Molecule: B2
Kd [6]: 33.5 µM
Kd [7]: 11.6 µM

Molecule: B3
binding result [8]: binds
fold reduction of binding against WT mHVEM [9]: ~3 fold

Molecule: B4
stoichiometry N [10]: 3 hHVEM per hLIGHT homotrimer

Molecule: B5
Kd [6]: 31.7 µM
Kd [11]: 0.0293 µM
Kd [7]: 0.0162 µM
binding result [8]: binds
binding result [12]: binds

Molecule: B6
Kd [6]: 5.3 µM
Kd [7]: 1.1 µM
fold reduction of binding against WT mHVEM [9]: ~5 fold
